# Reference: the DeepSol protein solubility set
# Experiment: soluble on expression in E. coli; label from the status in PepcDB or PDB records
row,Sequence,soluble on expression in E. coli
1,MSDKVQTMASAIYRELETMIKVHGEDGVKTLMPLVVNVLEALDLAYLERDEQTAELEMLKEDNEQLQTQYEREKALRKQTEQKYIEIEDTLIGQNKELDKKIESLESIMRMLELKAKNATDHASRLEEREVEQKLEFDRLHERYNTLLRTHVDHMERTKYLMGSEKFELMQNMPLPNMQLRNKMGMAASVDASSIRGVSDLISAHMTQSTTMDVNLANHITNEDWQDEFSSDIEPSPRDIPQSSADALTSPITTKEPTPKREAASPKQSEEEEADETTSVDPKENNDLLGADLTGNLVDPAEFASAVNDTFIGMGREVENLIKENSELLDMKNALNIVKNDLINQVDELNSENMILRDENLSRQMVSEKMQEQITKHEEEIKTLKQKLMEKENEQEEDDVPMAMRKRFTRSEMQRVLMDRNAYKEKLMELEESIKWTEMQRAKKMQQQQQNVNQKKSGGIWEFFSSLLGDSVTPPASSRGNRASSSRGKMTRSVEYIDPDMISERRAAERREQYKLVREHVKKEDGRIEAYGWSLPNVEAEVSSVPIPVCCRPLLDNEPSLKIWCATGVVLRGGRDERGQWIVGDPIYFAPASMKKTKTSNHRPELEDEIKRARNLDARESELDEWQSSSLVWVVSSNQGKSLIAVLDANNPNNIIETFPACDSHLLCIQAVSGVMEGEPEMNEEQSKKYLSGGGKIKDLPEGLDGTDLGACEWVELRKMEDSEDGVPTYCSNDMKPSPKRTRDFSISEVAPVDSSAPVKEDPLPPPANRPGGRAALPPHIRDAMSKYDGVSGQMSGALPTVWMGGQNQYIYIHSAVTAWKQCLRRIKMPDAVLSIVHYKSRIFAALANGTIAIFHRNKHGEWSDEGYHSLRVGSATSSVRSLCLVSTNIWATYKNCVVVLDAESLQIVKVFAAHPRKDSQVRNMQWVGAGVWLSIRLDSTLRLYHAHTYEHLQDVDIEPYVTKMLGTSKLDFSYMRTTALLVSNRRLWIGTGTGVIISVPFSGQLEKKIETKDSKRPAGPGGLVRVYGATSENATNDEKTNDDFIPYCNLAHAQLSFHGHKDSVKFFLGVPGASKNGEDESAEVTLRRMLIMSGGDGYIDFRIGEENEPELTGQSIRPRDMSHLIIWEVDAELPILSK,not soluble
2,GPGSMDNTEETSRVTDQEERTLTETELPAPAEHVLEGDNSASEENRLHAFLIPLEDGEQFARANLQHRWYRGLTKMLWDEELERNGILIVERGESGRNNQSADEEEEEDDDGTDDCVAKMKREFRIKREQDKIVYEEDSTRTETLREEQNAISLIVTLMEEAMDRSILMNEAETMFALILDVLKPRVHYRYIYAWGVVTCCSFKPLKSEMDRLRPSDRHKPPYMRKSLPTCRVPLEPIYYLPDGGKKMRAMNELNDVRAIGWV,not soluble
3,NSSDYRALFLNDVPMMDARAPVEFSKGAFPGVINLPLMNDIERQKVGTCYKQHGQDAAIQLGHQLVCGQVKDERVEAWVEFARANPNGYLYCFRGGLRSQTVQRWLKDAGVDYPRILGGYKAMRTFLLDTLHEAVTE,not soluble
4,MDHDKLEANLLDHALTKYLKSTKQLDEATVPKHVNNVRGFILRIIYRHGSCTIKDILKEVTLSPSATTTALNHLEQEGFIERSRNNNDRRTVWITLSESGRGAAEQMIENRQQLIDGMFERLTAEEKKTFLAIIAKLAQ,not soluble
5,MNSIRSSPAIGENRTVYIGSYDGKLYAFNPDGTLKWSYTTGNQITGSATIGADGTICIGSYDRRLYTINPDGTLKWSYTTGNQIFSSAAIGEDGTIYVGSRDNKLYALNPDGTLKWSYTTGNQIFSSAAIGEDLEHHHHHH,not soluble
6,MQTVNNIISSVSTVESKAYRDAMSHYAGAVQIVTTAGAAGRRGLTLTAACSVSDNPPTILICLQKIHEENRIFIENGVFAINTLAGPHQQLADAFSGRIGLTQDERFELAAWEILATGAPVLKGALAAFDCRVVSVQDHSTHHVLFGEVVGLSSHAEEEALIYLNRRYHKLEL,soluble
7,MGSDDQSAGDRIQKGFQINYMILRDADSGKIIWQENKDFSAPDQEHEARVPVKILDMRAVSREINFSTIESMENFRLDQKVLFKGRIMEEWFFEMGFVGANTTNTWQSTIEAAPESQMMPAKVLNGNVTIQTSFYDNETLITKSVVRLYYILEHHHHHH,not soluble
8,MGSDKIHHHHHHMQNVGLVMGKSSITDFSFAVNPSAIPKFGEYVTAINRDGEEVIGIVREISNFNRMILDEGFSFEYLVKNLDFSRRLIEKNDVIVATATVIGVVKDGEVYPNRTPIKPNSEVFLADDDVLSSLFKCDRGVELGRMIARPDISVSLDIKQLVLRHFAILSVTGGGKSNTVAVLVNDIVKKLNGTVVLIDPHGEYVGYTFEDGSERGKNVVPAGIRPERLEPWEFASLVGVDREKAAVQRMHLERIFTTVRHEGKAGREFVERVLDIAEEWINIAAGKGEAEYYDFNGIKRVATLDRQDLNALARIKEYVSSFMRRYEDLLSQNDMLANIKPSYLNVVNLSGFDEGQMRVVVAYLLRNLLVGRINYVRGKKGWEKICPAIVKPLLVIFEEGHIFAPKGVNNDVVSWMGRIAREGRKFGIGLGIVSQRPKRLNDDVLSQCNTKIILRITEPNDQRYVQHASEQISEDLLKDIASLGVGEAVVVGPAVKLPVAVKIRKFAGNYGGRDIDVVEEWLGREEEQKKQVTLEDLAV,not soluble
9,MESKAENRKKILQMLKNFSDYEKRRQNKDVLKQLTASSKWKSAKKIALYMSMPIEFNLTELFDQSDDKEILIPKCLPERQMIFAKYDKENLVRSKFGLLEPKSEIAVEPDFILVPGLIWNDEGYRIGFGGGYYDRYLANFEGSTASVLYDFQKMDFEAESHDIAVQELFIGRKNNEFLEHHHHHH,soluble
10,MHRTARNFAEIKPNLLFRKAKMARKSAEKYVAKKIQVPELQGEALFGLHSVLEAIRSGKRDFHSVFLKKAVENRADSDARIKEILSRIDELGIQKTLLTDDQLDRLTEFQLHNGICMDASALQFSNFEPKTVSIFVDKVLDPGNLGAIGRSAWYFGADGLGLVKGRGPKSITPAMIKSSCGALEHLPVQQFLNFNEFRDKIKAAGGELVATCDPGAAEKAGISAKSLDQWTPEKPVGIVLGDEGVGISRGILNLCDTVISISPVRKDGSNVTSLNVSVVAGILLHHISLQNRTN,not soluble
11,MSEAEAKLWQHLRAGRLNGYKFRRQQPMGNYIVDFMCVTPKLIVEADGGQHAEQAVYDHARTVYLNSLGFTVLRFWNHEILQQTNDVLAEILRVLQELEKQ,soluble
12,MGSDKIHHHHHHMKRILVSLYEKEKYLDILRELHEKGWEIWASSGTAKFLKSNGIEANDVSTITGFENLLGGLVKTLHPEIFAGILGPEPRWDVVFVDLYPPPDIDIGGVALLRAAAKNWKKVKPAFDMETLKLAIEIDDEETRKYLAGMTFAFTSVYDSIRANQFVEGISLAFKREDLQLRYGENPHEKAFVYGKPAFEILHEGKTISFNNILDAENAWFMAKNLPRMGAVVVKHQSPCGAAIGEDKVEIVKKAIEADDESSFGGILAVNFEMDEEVAKSLKKYLEVIVAPSFTQEAIEVLSKKKVRLLKPGDYASWAGKMAFGSLVLSERKYPEGNFELVVGEPLSEKELEDLEFAYRVVEGAKSNAVLIAKDGVTVGIGSGQPSRKRAAWIATVMAGEKAKGAVAASDAFFPFPDSLEILAQAGVKAVVAPLGSIRDEEVIEKARELGITFYKAPSRVFRH,soluble
13,MMSGGYKSSGVGNDRSQRSVFVGNISYDVSEDTIRSIFSKAGNVLSIKMVHDRETGKPKGYGFIEFPDIQTAEVAIRNLNGYELSGRILRVDSAAGGMNMEEFGSSSNAPAPVEENPYGPECDAGKAPERISQTVASLAPEKMFELMKQLQESLKNNPSELHKFLVEHPQIAYAVLQAAVVMRIVDPQTALGLLHRNKAATLTPFHNTPQGAPPMVQQQQMPMPPKPTFAHPGPSMGPPMGPPMGPPMGHPQAPQYGQNYGQPVAPQQYKPPPQQQPPVQMRPPVQQPQQNHQEEQQNAELLMQVMQLSEHDLQMLPAGDREKIIELRQQLKRNVK,not soluble
14,MGSDKIHHHHHHMERYSGRIFDNHFHLNPKSNFLGAANIFKRSGGTTLNLTNLPSHDAITEYYRRLYDDTIRIGDLVHYELGLEMLITIGPYPFDYFFFERYGSDPVNEMMHGLDLAAKYIEDGKAEAIGEIGFPHVPQPESVMERFWEMLDYAMKIAHDVDAPIVMHTYDLSCEDYAKIEKIAKVNGSVSVVKHHARPSDLTCNTGIARSVPASRSAVRKSLLLSRNFMLETDFINDPIDANRFLPPDSVPKRAQMILQEYDDGSEILNNIFNTIPESIYPKLKEKR,not soluble
15,GHMEDFWVQYGDEMLPVIGDFPRKGDYLPSFMLVDDQKHDAALESFSHTPKLIVTLLSVDEDEHAGLLLLRETRRFLDSWPHLKLIVITVDSPSSLARARHEHGLPNIALLSTLRGRDFHKRYGVLITEYPLSGYTSPAIILADAANVVHYSERLANTRDFFDFDAIEKLLQEGEQQAMAAEREAAEARQEQDAEREKGTERLLEKAKLIQDQLNRNGDPGRGS,soluble
16,MGSDKIHHHHHHMLTQDQDQKQRNWKPIIKAFEAVLGTNGVVQRREELITYECDGLTSYRQRPAVAVLPRTTEQVAAVVKICNQYAVPFIARGSGTGLSGGALPSEDSVLIVTSLMRQILNVDLDNQRIVVQPGVINSWVTQTVSGAGFYYAPDPSSQIICSIGGNVAENSGGVHCLKYGVTTNHVLGLKIVTPEGEIVDLGGQIPEAPGYDLTGIFVGSEGTLGIATEITLRILKSAESICVLLADFTSVEAAGATVSDIISAGIIPGGMEMMDNVSINAVEDVVATNCYPRDATAILLVEIDGLDVEVAVNKQRVTDICQQNGARSVTSASDPETRLKLWKGRKAAFAAAGHLSPDYYVQDGVIPRTQLPYVLQEIEALSQKFGYPIANVFHAGDGNLHPLILFDNSISGALEKVEELGGEILKLCVRVGGSISGEHGIGADKKCYMPDMFSDVDLETMQWIRQVFNPQGLANPGKIFPTPRTCGEAANAIKNQHFEGVERF,not soluble
17,MGHHHHHHSHMELKQSLSTHLEAEKPLRRYGAVEETAWKTERLGRNQLDIISMAETTMMPEEIELEMAKIQRLREVLVRRESELRFMMDDIQLCKDIMDLKQELQNLVAIPEKEKTKLQKQREDELIQKIHKLVQKRDFLVDDAEVERLREQEEDKEMADFLRIKLKPLDKVTKSPASSRAEKKAEPPPSKPTVAKTGLALIKDCCGATQCNIM,soluble
18,MATARTARSRRKVRKVRDKWKEKVWYEIYATPEFGGVFIGYTPANDPSLVLGRVAETSLRDLTGDPTKHMHRVYFKIFGVTGNKAIAQYYGHDTTREFMKSQIRRRRSRIDAILDVKTQDGHKIRTKAMVLTAYRANTKQKSDIRKKMEEIIKAMAKEKTFPQYVQAMLFGEMAEKIKNECKKIFPIKNVIIYKSEVLSLAKKEENEGFVKEAEEETAEAQELEHHHHHH,soluble
19,MNEQIPHDKSLDNSLTLLKEGYLFIKNRTERYNSDLFQARLLGKNFICMTGAEAAKVFYDTDRFQRQNALPKRVQKSLFGVNAIQGMDGSAHIHRKMLFLSLMTPPHQKRLAELMTEEWKAAVTRWEKADEVVLFEEAKEILCRVACYWAGVPLKETEVKERADDFIDMVDAFGAVGPRHWKGRRARPRAEEWIEVMIEDARAGLLKTTSGTALHEMAFHTQEDGSQLDSRMAAIELINVLRPIVAISYFLVFSALALHEHPKYKEWLRSGNSREREMFVQEVRRYYPFGPFLGALVKKDFVWNNCEFKKGTSVLLDLYGTNHDPRLWDHPDEFRPERFAEREENLFDMIPQGGGHAEKGHRCPGEGITIEVMKASLDFLVHQIEYDVPEQSLHYSLARMPSLPESGFVMSGIRRKS,soluble
